Columns and labels:
Type in all cases: cell-based
[1] = test system: HDR-proficient DLD1 cells; experiment: Selectivity of combination therapy in HDR-proficient cells; conditions: 5 nM olaparib, 10 μM di-scFv, alone or combined
Description: Homology-directed repair (HDR) deficient BRCA2-DLD1 cells and PTEN-U251 cells were treated with control, 5 nM olaparib, 10 μM di-scFv, or 10 μM di-scFv+5 nM olaparib. Surviving fraction was determined by colony formation assay.
It was then determined whether the combination of di-scFv and olaparib is simply universally cytotoxic, regardless of DNA repair status. To evaluate this possibility, HDR-proficient DLD1 cells were treated with the above regimen to confirm selectivity of combination therapy to HDR-deficient malignant cells.

[2] = test system: PTEN-deficient U251 human glioma cells; experiment: Phospho-53BP1 foci accumulation (DNA damage), PTEN-deficient cells; conditions: PTEN-deficient U251, twenty-four hours, FIG. 8
Description: A matched pair of PTEN-proficient and deficient U251 human glioma cells were treated with control media or media containing Variant 10, 11, 13, 15, or 16 for twenty-four hours. Cells were then washed, fixed, blocked, and then probed with an anti-phospho-53BP1 antibody overnight. Cells were then washed and incubated with an AlexaFluor555-conjugated secondary antibody. Finally, cells were washed, counterstained with DAPI, and visualized under a fluorescence microscope. Images were saved and evaluated by CellProfiler to determine mean number of phospho-53BP1 foci per cell.
A matched pair of BRCA2-proficient and deficient DLD1 colon cancer cells and PTEN-proficient and deficient U251 human glioma cells were treated with control media or media containing 10 μM di-scFv variant 13 (SEQ ID NO: 41), 5 nM olaparib, or combination treatment.

[3] = test system: PTEN-deficient U87 human glioma cells; experiment: Cell viability by Trypan blue exclusion assay and light microscopy; conditions: PTEN-deficient U87, 7 days after treatment, FIG. 9
Description: Cell viability of PTEN-deficient U87 human glioma cells was also assessed following treatment with control media or media containing Variants 10, 13, 15, or 16. Cell viability was determined 7 days after treatment using Trypan blue exclusion assay and by direct visualization of cell morphology by light microscopy.

[4] = test system: BRCA2-proficient DLD1 colon cancer cells; experiment: Cell viability by Trypan blue exclusion assay, BRCA2-proficient cells; conditions: BRCA2-proficient DLD1, 7 days, FIG. 10
Description: (§1) Next, a matched pair of BRCA2-proficient and deficient DLD1 colon cancer cells was treated with control media or media containing Variants 10, 13, 15, or 16. Cell viability was determined 7 days later by Trypan blue exclusion assay and by direct visualization of cell morphology by light microscopy. […] Representative light microscope images shown the changes in morphology in the BRCA2-deficient cancer cells treated with the variants are shown in FIG. 10, Panel A. Quantitative analysis of the cell survival by Trypan blue exclusion assay is shown in FIG. 10, Panel B.

[5] = test system: BRCA2-deficient DLD1 colon cancer cells; experiment: Cell viability by Trypan blue exclusion assay, BRCA2-deficient cells; conditions: BRCA2-deficient DLD1, 7 days, FIG. 10
Description: as §1

DLD1 colon cancer cells = experiment: Alkaline phosphatase-based survey of nuclear penetration; conditions: DLD1 cells treated one hour; FIG. 5

Molecule | cell death [1] | mean number of phospho-53BP1 foci per cell [2] | cell viability relative to control treated cells [3] | cell viability (toxicity) [4] | cell viability (cell killing) [5] | nuclear penetration (histogram of cell counts versus nuclear staining intensity) relative to the yeast prototype (DLD1 colon cancer cells)
O=C(c1cc(Cc2n[nH]c(=O)c3ccccc23)ccc1F)N1CCN(C(=O)C2CC2)CC1 [olaparib, reference compound] | remain resistant | – | – | – | – | –
Variant 10: cell penetrating anti-DNA di-scFv variant, amino acid sequence SEQ ID NO: 38 (protein, Variant 10) scFv: DIQMTQSPSSLSASVGDRVTITCRASKSVSTSSYSYMHWYQQKPGKAPKLLIKYASYLESGVPSRFSGSGSGTDFTLTISSLQPEDFATYYCQHSREFPWTFGQGTKVEIKRADAAPGGGGSGGGGSGGGGSEVQLVESGGGLVQPGGSLRLSCAASGFTFSNYGMHWVRQAPGKGLEWVSYISSSSSTIYYADSVKGRFTISRDNAKNSLYLQMNSLRAEDTAVYYCARRGLLLDYWGQGTTVTVSSASTKGPSVFPLAPLESSGSDIQMTQSPSSLSASVGDRVTITCRASKSVSTSSYSYMHWYQQKPGKAPKLLIKYASYLESGVPSRFSGSGSGTDFTLTISSLQPEDFATYYCQHSREFPWTFGQGTKVEIKRADAAPGGGGSGGGGSGGGGSEVQLVESGGGLVQPGGSLRLSCAASGFTFSNYGMHWVRQAPGKGLEWVSYISSSSSTIYYADSVKGRFTISRDNAKNSLYLQMNSLRAEDTAVYYCARRGLLLDYWGQGTTVTVSS | – | increased the number of foci | caused reductions in cell viability | not toxic | killed by the variants | –
Variant 16: cell penetrating anti-DNA di-scFv variant, amino acid sequence SEQ ID NO: 44 (protein, Variant 16) scFv: DIQMTQSPSSLSASVGDRVTITCRASKTVSTSSYSYMHWYQQKPGKAPKLLIKYASYLESGVPSRFSGSGSGTDFTLTISSLQPEDFATYYCQHSREFPWTFGQGTKVEIKRADAAPGGGGSGGGGSGGGGSEVQLVESGGGLVQPGGSLRLSCAASGFTFSNYGMHWVRQAPGKGLEWVSYISSGSSTIYYADSVKGRFTISRDNAKNSLYLQMNSLRAEDTAVYYCARRGLLLDYWGQGTTVTVSSASTKGPSVFPLAPLESSGSDIQMTQSPSSLSASVGDRVTITCRASKTVSTSSYSYMHWYQQKPGKAPKLLIKYASYLESGVPSRFSGSGSGTDFTLTISSLQPEDFATYYCQHSREFPWTFGQGTKVEIKRADAAPGGGGSGGGGSGGGGSEVQLVESGGGLVQPGGSLRLSCAASGFTFSNYGMHWVRQAPGKGLEWVSYISSGSSTIYYADSVKGRFTISRDNAKNSLYLQMNSLRAEDTAVYYCARRGLLLDYWGQGTTVTVSS | – | increased the number of foci | caused reductions in cell viability | not toxic | killed by the variants | –
Variant 11: cell penetrating anti-DNA di-scFv variant, amino acid sequence SEQ ID NO: 39 (protein, Variant 11) scFv: DIQMTQSPSSLSASVGDRVTITCRASKSVSTSSYSYMHWYQQKPGKAPKLLIKYASYLESGVPSRFSGSGSGTDFTLTISSLQPEDFATYYCQHSREFPWTFGQGTKVEIKRADAAPGGGGSGGGGSGGGGSEVQLVESGGGVVQPGGSLRLSCAASGFTFSNYGMHWVRQAPEKGLEWVSYISSSSSTIYYADSVKGRFTISRDNSKNTLYLQMNSLRAEDTAVYYCARRGLLLDYWGQGTTVTVSSASTKGPSVFPLAPLESSGSDIQMTQSPSSLSASVGDRVTITCRASKSVSTSSYSYMHWYQQKPGKAPKLLIKYASYLESGVPSRFSGSGSGTDFTLTISSLQPEDFATYYCQHSREFPWTFGQGTKVEIKRADAAPGGGGSGGGGSGGGGSEVQLVESGGGVVQPGGSLRLSCAASGFTFSNYGMHWVRQAPEKGLEWVSYISSSSSTIYYADSVKGRFTISRDNSKNTLYLQMNSLRAEDTAVYYCARRGLLLDYWGQGTTVTVSS | – | increased the number of foci | – | – | – | –
Variant 15: cell penetrating anti-DNA di-scFv variant, amino acid sequence SEQ ID NO: 43 (protein, Variant 15) scFv: DIQMTQSPSSLSASLGDRATITCRASKTVSTSSYSYMHWYQQKPGQPPKLLIKYASYLESGVPSRFSGSGSGTDFTLTISSLQPEDAATYYCQHSREFPWTFGGGTKVEIKRADAAPGGGGSGGGGSGGGGSEVQLVESGGGDVKPGGSLRLSCAASGFTFSNYGMHWVRQAPEKGLEWVSYISSGSSTIYYADSVKGRFTISRDNSKNTLYLQMNSLRAEDTAVYYCARRGLLLDYWGQGTTVTVSSASTKGPSVFPLAPLESSGSDIQMTQSPSSLSASLGDRATITCRASKTVSTSSYSYMHWYQQKPGQPPKLLIKYASYLESGVPSRFSGSGSGTDFTLTISSLQPEDAATYYCQHSREFPWTFGGGTKVEIKRADAAPGGGGSGGGGSGGGGSEVQLVESGGGDVKPGGSLRLSCAASGFTFSNYGMHWVRQAPEKGLEWVSYISSGSSTIYYADSVKGRFTISRDNSKNTLYLQMNSLRAEDTAVYYCARRGLLLDYWGQGTTVTVSS | – | increased the number of foci | caused reductions in cell viability | not toxic | killed by the variants | notable right shift and narrowing of distributions relative to the yeast prototype

Reference: patent US20240052063A1, “Binding Proteins 2” (Nucleus Therapeutics Pty. Ltd., priority 2017, published 2024)
